These results are taken from the RNAGym collection of RNA variant scans (doi:10.7554/elife.80360).

First the molecules themselves.
B1: HDV Ribozyme (parent)
chain: GGCCGGCAUGGUCCCAGCCUCCUCGCUGGCGCCGGCUGGGCAACAUUCCGAGGGGACCGUCCCCUCGGUAAUGGCGAAUGGGACCCA

This data set covers variants of B1. Description: self-cleavage, relative activity (ratio to wild type); higher = more cleavage; co-transcriptional.
Consider GGCCGGCAUGGUCCCAGCCUCCUCGCUGGCGCCGGCUGGGCAACAUUCCGAGGGGACCGUCCCCUCGGAAAUGGCGGAUGGGACCCA, for which the self-cleavage was 0.72.

Turning to GGCCGGCAUGGUCCCAGCCUCCUCGCUGGCGCCGGCUGGGCAACAUUCCGAGGGGACCGUCCCCUCGGAAAUGGUGAAUGGGACCCA, the self-cleavage was 0.155.

GGCCGGCAUGGUCCCAGCCUCCUCGCUGGCGCCGGCUGGGCAACAUUCCGAGGGGACCGUCCCCUCGGCAAUGGCGAAUGGGCCCCA: the self-cleavage amounted to 0.57.

GGCCGGCAUGGUCCCAGCCUCCUCGCUGGCGCCGGCUGGGCAACAUUCCGAGGGGACCGUCCCCUCGUCAAUGGCGAAUGGGACCCA: the self-cleavage turned out to be 0.935.

Turning to GGCCGGCAUGGUCCCAGCCUCCUCGCUGGCGCCGGCUGGGCAACAUUCCGAGGGGACCGUCCCCUCGGGAAUGGCGAAUGGUACCCA, the self-cleavage was 0.208.

Consider GGCCGGCAUGGUCCCAGCCUCCUCGCUGGCGCCGGCUGGGCAACAUUCCGAGGGGACCGUCCCCUCGGGAAUGGCGAAUGGCACCCA, for which the self-cleavage turned out to be 0.429.

As to GGCCGGCAUGGUCCCAGCCUCCUCGCUGGCGCCGGCUGGGCAACAUUCCGAGGGGACCGUCCCCUCGGUCAUGUCGAAUGGGACCCA, the self-cleavage turned out to be 0.504.

In the case of GGCCGGCAUGGUCCCAGCCUCCUCGCUGGCGCCGGCUGGGCAACAUUCCGAGGGGACCGUCCCCUCGGUCAUGGCGAAUGGGACCAA, the self-cleavage turned out to be 1.11.

Turning to GGCCGGCAUGGUCCCAGCCUCCUCGCUGGCGCCGGCUGGGCAACAUUCCGAGGGGACCGUCCCCUCGGUCAUGGCGAAUGGGACCUA, the self-cleavage is 0.852.

With GGCCGGCAUGGUCCCAGCCUCCUCGCUGGCGCCGGCUGGGCAACAUUCCGAGGGGACCGUCCCCUCGGAAUUGGCGAAUGGGACCCA, the self-cleavage stood at 1.27.

On to GGCCGGCAUGGUCCCAGCCUCCUCGCUGGCGCCGGCUGGGCAACAUUCCGAGGGGACCGUCCCCUCGGAACUGGCGAAUGGGACCCA, for which the self-cleavage was 0.935.

Regarding GGCCGGCAUGGUCCCAGCCUCCUCGCUGGCGCCGGCUGGGCAACAUUCCGAGGGGACCGUCCCCUCGGUCAUGGCGAAUCGGACCCA, the self-cleavage was determined as 0.135.

As for GGCCGGCAUGGUCCCAGCCUCCUCGCUGGCGCCGGCUGGGCAACAUUCCGAGGGGACCGUCCCCUCGGUCAUGGCGAAUAGGACCCA, the self-cleavage turned out to be 0.177.

On to GGCCGGCAUGGUCCCAGCCUCCUCGCUGGCGCCGGCUGGGCAACAUUCCGAGGGGACCGUCCCCUCGGUCAUGGCGAACGGGACCCA, for which the self-cleavage came to 0.18.

As to GGCCGGCAUGGUCCCAGCCUCCUCGCUGGCGCCGGCUGGGCAACAUUCCGAGGGGACCGUCCCCUCGGGAAUGGCCAAUGGGACCCA, the self-cleavage came to 0.77.

For GGCCGGCAUGGUCCCAGCCUCCUCGCUGGCGCCGGCUGGGCAACAUUCCGAGGGGACCGUCCCCUCGGGAAAGGCGAAUGGGACCCA, the self-cleavage is 0.369.

As to GGCCGGCAUGGUCCCAGCCUCCUCGCUGGCGCCGGCUGGGCAACAUUCCGAGGGGACCGUCCCCUCGUUAAUGGCGAAUGUGACCCA, the self-cleavage stood at 0.197.

For the variant GGCCGGCAUGGUCCCAGCCUCCUCGCUGGCGCCGGCUGGGCAACAUUCCGAGGGGACCGUCCCCUCGGCAAUGGCGAUUGGGACCCA, the self-cleavage turned out to be 0.375.

As to GGCCGGCAUGGUCCCAGCCUCCUCGCUGGCGCCGGCUGGGCAACAUUCCGAGGGGACCGUCCCCUCGGCACUGGCGAAUGGGACCCA, the self-cleavage was 0.475.

For the variant GGCCGGCAUGGUCCCAGCCUCCUCGCUGGCGCCGGCUGGGCAACAUUCCGAGGGGACCGUCCCCUCGGGAAUGUCGAAUGGGACCCA, the self-cleavage stood at 0.607.

For the variant GGCCGGCAUGGUCCCAGCCUCCUCGCUGGCGCCGGCUGGGCAACAUUCCGAGGGGACCGUCCCCUCGGGAAUGACGAAUGGGACCCA, the self-cleavage is 0.614.

As to GGCCGGCAUGGUCCCAGCCUCCUCGCUGGCGCCGGCUGGGCAACAUUCCGAGGGGACCGUCCCCUCGGGAAUGGCGAAUGGGACCUA, the self-cleavage came to 0.723.

Take GGCCGGCAUGGUCCCAGCCUCCUCGCUGGCGCCGGCUGGGCAACAUUCCGAGGGGACCGUCCCCUCGGUCAUGGCGAUUGGGACCCA: the self-cleavage came to 0.162.

Take GGCCGGCAUGGUCCCAGCCUCCUCGCUGGCGCCGGCUGGGCAACAUUCCGAGGGGACCGUCCCCUCGGUCAUGGCGAGUGGGACCCA: the self-cleavage came to 0.519.

As for GGCCGGCAUGGUCCCAGCCUCCUCGCUGGCGCCGGCUGGGCAACAUUCCGAGGGGACCGUCCCCUCGGGAAUGGCGAAUGGGGCCCA, the self-cleavage was found to be 0.739.

In the case of GGCCGGCAUGGUCCCAGCCUCCUCGCUGGCGCCGGCUGGGCAACAUUCCGAGGGGACCGUCCCCUCGGGAAUGGCGACUGGGACCCA, the self-cleavage is 0.332.

Take GGCCGGCAUGGUCCCAGCCUCCUCGCUGGCGCCGGCUGGGCAACAUUCCGAGGGGACCGUCCCCUCGGAGAUGGCGAAUGGGACCCA: the self-cleavage was determined as 0.98.

For GGCCGGCAUGGUCCCAGCCUCCUCGCUGGCGCCGGCUGGGCAACAUUCCGAGGGGACCGUCCCCUCGGCAAUGGCGGAUGGGACCCA, the self-cleavage stood at 0.997.

With GGCCGGCAUGGUCCCAGCCUCCUCGCUGGCGCCGGCUGGGCAACAUUCCGAGGGGACCGUCCCCUCGGUGAUGGCGAAUGGGACCGA, the self-cleavage amounted to 1.03.

Take GGCCGGCAUGGUCCCAGCCUCCUCGCUGGCGCCGGCUGGGCAACAUUCCGAGGGGACCGUCCCCUCGGGAAUGGCGAAUGGGACCCG: the self-cleavage was 0.876.

Take GGCCGGCAUGGUCCCAGCCUCCUCGCUGGCGCCGGCUGGGCAACAUUCCGAGGGGACCGUCCCCUCGGGAAUGGCGGAUGGGACCCA: the self-cleavage was 1.29.

As to GGCCGGCAUGGUCCCAGCCUCCUCGCUGGCGCCGGCUGGGCAACAUUCCGAGGGGACCGUCCCCUCGGCAAUGGCGAAUCGGACCCA, the self-cleavage was determined as 0.0396.

Consider GGCCGGCAUGGUCCCAGCCUCCUCGCUGGCGCCGGCUGGGCAACAUUCCGAGGGGACCGUCCCCUCGGGAAUUGCGAAUGGGACCCA, for which the self-cleavage amounted to 0.314.

As for GGCCGGCAUGGUCCCAGCCUCCUCGCUGGCGCCGGCUGGGCAACAUUCCGAGGGGACCGUCCCCUCGGAAAUGUCGAAUGGGACCCA, the self-cleavage stood at 0.665.

Consider GGCCGGCAUGGUCCCAGCCUCCUCGCUGGCGCCGGCUGGGCAACAUUCCGAGGGGACCGUCCCCUCGGUGAUGGCGGAUGGGACCCA, for which the self-cleavage was found to be 0.831.

Regarding GGCCGGCAUGGUCCCAGCCUCCUCGCUGGCGCCGGCUGGGCAACAUUCCGAGGGGACCGUCCCCUCGGGCAUGGCGAAUGGGACCCA, the self-cleavage was determined as 1.15.

With GGCCGGCAUGGUCCCAGCCUCCUCGCUGGCGCCGGCUGGGCAACAUUCCGAGGGGACCGUCCCCUCGGUGGUGGCGAAUGGGACCCA, the self-cleavage came to 0.918.

Take GGCCGGCAUGGUCCCAGCCUCCUCGCUGGCGCCGGCUGGGCAACAUUCCGAGGGGACCGUCCCCUCGGUGCUGGCGAAUGGGACCCA: the self-cleavage is 0.712.

As for GGCCGGCAUGGUCCCAGCCUCCUCGCUGGCGCCGGCUGGGCAACAUUCCGAGGGGACCGUCCCCUCGGUCACGGCGAAUGGGACCCA, the self-cleavage came out at 0.369.

For GGCCGGCAUGGUCCCAGCCUCCUCGCUGGCGCCGGCUGGGCAACAUUCCGAGGGGACCGUCCCCUCGGAAAUGGCGAAUGGAACCCA, the self-cleavage was 0.233.

Regarding GGCCGGCAUGGUCCCAGCCUCCUCGCUGGCGCCGGCUGGGCAACAUUCCGAGGGGACCGUCCCCUCGGAAAUGGCGAAUGUGACCCA, the self-cleavage came to 0.332.

With GGCCGGCAUGGUCCCAGCCUCCUCGCUGGCGCCGGCUGGGCAACAUUCCGAGGGGACCGUCCCCUCGGGAAUGGGGAAUGGGACCCA, the self-cleavage was determined as 0.199.

As to GGCCGGCAUGGUCCCAGCCUCCUCGCUGGCGCCGGCUGGGCAACAUUCCGAGGGGACCGUCCCCUCGGUCAUGGCUAAUGGGACCCA, the self-cleavage amounted to 1.05.

Regarding GGCCGGCAUGGUCCCAGCCUCCUCGCUGGCGCCGGCUGGGCAACAUUCCGAGGGGACCGUCCCCUCGGAAAUAGCGAAUGGGACCCA, the self-cleavage worked out at 0.619.

With GGCCGGCAUGGUCCCAGCCUCCUCGCUGGCGCCGGCUGGGCAACAUUCCGAGGGGACCGUCCCCUCGGCAAUGGCGAAUGGGACUCA, the self-cleavage amounted to 1.15.

In the case of GGCCGGCAUGGUCCCAGCCUCCUCGCUGGCGCCGGCUGGGCAACAUUCCGAGGGGACCGUCCCCUCGGUCAUGGAGAAUGGGACCCA, the self-cleavage amounted to 0.123.

For the variant GGCCGGCAUGGUCCCAGCCUCCUCGCUGGCGCCGGCUGGGCAACAUUCCGAGGGGACCGUCCCCUCGGCAAUGGCGAAUGUGACCCA, the self-cleavage was found to be 0.369.

Take GGCCGGCAUGGUCCCAGCCUCCUCGCUGGCGCCGGCUGGGCAACAUUCCGAGGGGACCGUCCCCUCGGCCAUGGCGAAUGGGACCCA: the self-cleavage turned out to be 1.23.

GGCCGGCAUGGUCCCAGCCUCCUCGCUGGCGCCGGCUGGGCAACAUUCCGAGGGGACCGUCCCCUCGGCUAUGGCGAAUGGGACCCA: the self-cleavage came out at 0.875.

Regarding GGCCGGCAUGGUCCCAGCCUCCUCGCUGGCGCCGGCUGGGCAACAUUCCGAGGGGACCGUCCCCUCGGUGAUGGCGAAUGGGACUCA, the self-cleavage amounted to 1.01.

On to GGCCGGCAUGGUCCCAGCCUCCUCGCUGGCGCCGGCUGGGCAACAUUCCGAGGGGACCGUCCCCUCGGUGAUGGCGAAUGGGAGCCA, for which the self-cleavage stood at 0.475.

Consider GGCCGGCAUGGUCCCAGCCUCCUCGCUGGCGCCGGCUGGGCAACAUUCCGAGGGGACCGUCCCCUCGGUGAUGGCAAAUGGGACCCA, for which the self-cleavage was 0.92.

GGCCGGCAUGGUCCCAGCCUCCUCGCUGGCGCCGGCUGGGCAACAUUCCGAGGGGACCGUCCCCUCGGUGAUGGCGAUUGGGACCCA: the self-cleavage turned out to be 0.151.

As for GGCCGGCAUGGUCCCAGCCUCCUCGCUGGCGCCGGCUGGGCAACAUUCCGAGGGGACCGUCCCCUCGGCAAAGGCGAAUGGGACCCA, the self-cleavage turned out to be 0.499.

With GGCCGGCAUGGUCCCAGCCUCCUCGCUGGCGCCGGCUGGGCAACAUUCCGAGGGGACCGUCCCCUCGGCAACGGCGAAUGGGACCCA, the self-cleavage is 0.9.

As to GGCCGGCAUGGUCCCAGCCUCCUCGCUGGCGCCGGCUGGGCAACAUUCCGAGGGGACCGUCCCCUCGGCAAUGCCGAAUGGGACCCA, the self-cleavage amounted to 0.0923.

In the case of GGCCGGCAUGGUCCCAGCCUCCUCGCUGGCGCCGGCUGGGCAACAUUCCGAGGGGACCGUCCCCUCGGGAAUGGCGAAUGGGAGCCA, the self-cleavage turned out to be 0.639.

As for GGCCGGCAUGGUCCCAGCCUCCUCGCUGGCGCCGGCUGGGCAACAUUCCGAGGGGACCGUCCCCUCGGUCUUGGCGAAUGGGACCCA, the self-cleavage stood at 0.791.

In the case of GGCCGGCAUGGUCCCAGCCUCCUCGCUGGCGCCGGCUGGGCAACAUUCCGAGGGGACCGUCCCCUCGGUGAUGGCGAAUAGGACCCA, the self-cleavage is 0.271.

Take GGCCGGCAUGGUCCCAGCCUCCUCGCUGGCGCCGGCUGGGCAACAUUCCGAGGGGACCGUCCCCUCGGUGAUGGCGAAUUGGACCCA: the self-cleavage is 0.177.

With GGCCGGCAUGGUCCCAGCCUCCUCGCUGGCGCCGGCUGGGCAACAUUCCGAGGGGACCGUCCCCUCGGUGAUGUCGAAUGGGACCCA, the self-cleavage stood at 0.65.

In the case of GGCCGGCAUGGUCCCAGCCUCCUCGCUGGCGCCGGCUGGGCAACAUUCCGAGGGGACCGUCCCCUCGGUGAUGACGAAUGGGACCCA, the self-cleavage stood at 0.453.

For the variant GGCCGGCAUGGUCCCAGCCUCCUCGCUGGCGCCGGCUGGGCAACAUUCCGAGGGGACCGUCCCCUCGGCAAUGGCGAAUGGGAUCCA, the self-cleavage turned out to be 0.852.

Take GGCCGGCAUGGUCCCAGCCUCCUCGCUGGCGCCGGCUGGGCAACAUUCCGAGGGGACCGUCCCCUCGGAAAUGGCGAGUGGGACCCA: the self-cleavage came to 0.959.
